The target of this test is T1, His6-tagged Lhs1p (wild type) (S. cerevisiae, UniProt P36016 21-881).
T1 sequence: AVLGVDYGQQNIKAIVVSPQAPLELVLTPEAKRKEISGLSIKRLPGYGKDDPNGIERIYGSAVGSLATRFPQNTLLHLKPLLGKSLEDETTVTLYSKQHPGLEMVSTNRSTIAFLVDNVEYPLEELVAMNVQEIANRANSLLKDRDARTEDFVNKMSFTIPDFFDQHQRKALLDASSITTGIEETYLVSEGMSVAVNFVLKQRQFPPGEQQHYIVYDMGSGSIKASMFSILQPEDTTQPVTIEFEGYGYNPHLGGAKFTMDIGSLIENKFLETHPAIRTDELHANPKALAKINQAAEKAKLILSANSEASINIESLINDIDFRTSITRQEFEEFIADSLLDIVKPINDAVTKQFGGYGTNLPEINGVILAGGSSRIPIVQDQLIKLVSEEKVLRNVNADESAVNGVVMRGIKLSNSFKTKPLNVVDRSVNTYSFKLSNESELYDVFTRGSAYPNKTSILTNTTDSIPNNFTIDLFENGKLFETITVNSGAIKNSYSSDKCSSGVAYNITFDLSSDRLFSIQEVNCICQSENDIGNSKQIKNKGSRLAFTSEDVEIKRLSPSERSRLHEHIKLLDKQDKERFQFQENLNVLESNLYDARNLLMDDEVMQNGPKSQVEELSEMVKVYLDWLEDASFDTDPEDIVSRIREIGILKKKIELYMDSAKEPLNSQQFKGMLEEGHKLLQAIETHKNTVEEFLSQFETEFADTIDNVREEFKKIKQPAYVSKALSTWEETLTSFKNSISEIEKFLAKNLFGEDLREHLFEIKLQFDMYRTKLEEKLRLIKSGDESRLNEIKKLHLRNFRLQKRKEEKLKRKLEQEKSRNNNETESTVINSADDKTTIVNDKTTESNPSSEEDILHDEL
Put plainly: pull-down.

B1: GST-tagged Kar2p (wild type) (natural protein)
chain: not shown
On to B1, for which the binding result was “binds”.

B2: GST-tagged Kar2p(G246D) (natural protein)
chain: not shown
Regarding B2, the binding result is given as “binds”.

For the origin of these results see publication PMC2797226 (The Journal of Biological Chemistry, 2009).
